In the test the target is TGF-beta receptor(s) on CCL64 mink lung epithelial cells (mink (endogenous in CCL64)). Briefly: radioligand binding.

What is called Kd is a measure of binding affinity in units of concentration. A high value points to weaker binding.

Regarding “Human TGF-beta (type 1), 125I-labeled (ligand)”, the Kd was 8.3 pM; the increase of specific binding with 100 ug/ml heparin over no heparin was found to be 46%; the specific binding, cpm of the 100% value (without heparin) is 325 cpm.
